Measured values from patent US7026125, “Heterodimers of retinoid X receptors (RXRS) and other steroid hormone receptors” (Ligand Pharmaceuticals).

How the values were obtained:
Details in all cases: label: 32P
[1] = biological target: RARγ/RXRαm3 (UniProt P13631;P19793 P13631:1-454,P19793:28-462, RXRα N-terminal deletion of 28 aa); assay: EMSA
Procedure: (§1) In vitro translated receptor protein (1 to 5 μl depending on the translation efficiency) was incubated with the ^32P-labeled oligonucleotides in a 20-μl reaction mixture containing 10 mM hepes buffer, pH 7.9, 50 mM KCl, 1 mM DTT, 2.5 mM MgCl, 10% glycerol, and 1 μg of poly(dI-dC) at 25° C. for 20 minutes. In general, relative low receptor concentration was used to obtain the clear effect of heterodimer formation. The reaction mixture was then loaded on a 5% nondenaturing ployacrylamide gel containing 0.5×TBE (1×TBE=0.089 M Tris-borate, 0.089 M boric acid, and 0.002 M EDTA). To analyze the effect of RXRα or the nuclear proteins on receptor DNA binding activity, RXRα or the cell extracts were preincubated with receptor protein at room temperature for 10 minutes before performing the DNA binding assay. When antibody was used, 1 μl of the antiserum was incubated with the specific translation products at room temperature for 45 minutes before performing the experiments described above.

[2] = biological target: RARγ + RXRαm5 (UniProt P13631;P19793 P13631:1-454,P19793:198-462, RXRα N-terminal deletion of 198 aa including DNA binding domain); assay: EMSA
Chain of RARγ + RXRαm5 (P13631 whole entry, stated change not applied, chain 1 of 2, the tested form may be a part): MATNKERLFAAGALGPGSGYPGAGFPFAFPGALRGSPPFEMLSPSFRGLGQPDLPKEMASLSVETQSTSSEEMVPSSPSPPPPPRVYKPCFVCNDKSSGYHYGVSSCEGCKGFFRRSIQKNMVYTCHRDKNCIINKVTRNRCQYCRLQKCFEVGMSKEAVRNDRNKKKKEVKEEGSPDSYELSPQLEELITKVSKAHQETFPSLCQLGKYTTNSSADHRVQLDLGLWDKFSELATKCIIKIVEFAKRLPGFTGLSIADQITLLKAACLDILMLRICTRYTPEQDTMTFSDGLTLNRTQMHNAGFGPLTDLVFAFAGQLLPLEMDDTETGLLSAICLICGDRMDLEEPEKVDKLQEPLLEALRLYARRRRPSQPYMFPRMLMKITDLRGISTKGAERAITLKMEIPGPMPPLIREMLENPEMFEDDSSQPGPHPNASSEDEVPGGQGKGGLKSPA
Chain of RARγ + RXRαm5 (P19793 199-462, stated change not applied, chain 2 of 2): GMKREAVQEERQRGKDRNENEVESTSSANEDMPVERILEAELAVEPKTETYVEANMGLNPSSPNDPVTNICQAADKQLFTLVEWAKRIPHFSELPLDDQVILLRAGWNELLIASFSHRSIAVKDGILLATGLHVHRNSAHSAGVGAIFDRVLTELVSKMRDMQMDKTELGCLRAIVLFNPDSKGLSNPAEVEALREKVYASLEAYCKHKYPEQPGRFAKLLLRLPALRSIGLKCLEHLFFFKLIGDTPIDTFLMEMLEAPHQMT
Procedure: as §1

[3] = biological target: TRα/RXRαm3 (UniProt P10827-2;P19793 P10827-2:1-410,P19793:28-462, RXRα N-terminal deletion of 28 aa); assay: EMSA
Chain of TRα/RXRαm3 (P19793 29-462, stated change not applied, one chain of several): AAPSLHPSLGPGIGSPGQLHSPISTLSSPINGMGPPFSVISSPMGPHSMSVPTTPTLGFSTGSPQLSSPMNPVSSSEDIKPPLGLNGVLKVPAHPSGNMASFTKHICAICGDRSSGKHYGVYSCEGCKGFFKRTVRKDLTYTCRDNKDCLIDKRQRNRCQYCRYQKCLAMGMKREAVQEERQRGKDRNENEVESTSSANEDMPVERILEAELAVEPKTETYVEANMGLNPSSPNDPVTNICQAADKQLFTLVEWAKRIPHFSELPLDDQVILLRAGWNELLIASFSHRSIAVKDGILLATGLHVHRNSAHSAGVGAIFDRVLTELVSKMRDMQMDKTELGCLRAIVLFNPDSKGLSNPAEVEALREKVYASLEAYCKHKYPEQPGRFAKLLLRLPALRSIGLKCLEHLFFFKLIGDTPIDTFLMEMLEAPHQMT
Procedure: as §1

[4] = biological target: T1, TRα (UniProt P10827-2 P10827-2:1-410); assay: EMSA; monomer complex; 25 C, 50 mM KCl
T1 sequence: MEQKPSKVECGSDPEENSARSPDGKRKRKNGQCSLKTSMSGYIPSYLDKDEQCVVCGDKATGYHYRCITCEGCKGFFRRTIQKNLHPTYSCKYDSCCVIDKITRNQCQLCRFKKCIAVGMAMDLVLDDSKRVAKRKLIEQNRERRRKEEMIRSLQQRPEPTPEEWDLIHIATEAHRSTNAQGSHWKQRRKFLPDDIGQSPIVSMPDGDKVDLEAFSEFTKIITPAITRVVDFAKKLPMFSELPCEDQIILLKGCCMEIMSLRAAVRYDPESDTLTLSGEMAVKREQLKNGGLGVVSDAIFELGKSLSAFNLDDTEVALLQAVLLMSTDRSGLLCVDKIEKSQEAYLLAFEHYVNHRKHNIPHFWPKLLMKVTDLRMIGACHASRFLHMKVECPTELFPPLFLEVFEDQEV
Procedure: (§2) (a) In vitro synthesized TRα, TRβ, RARα, RARβ, RARγ and TRα2 receptor proteins were preincubated either with (+) or without (−) equal amount of in vitro synthesized RXRα protein at room temperature for 10 minutes. Following this preincubation, the reaction mixtures were incubated with ^32p-labelled palindromic TRE (for 1 sequence see FIG. 2a) and analyzed by gel retardation assay as described in Experimental Procedures. […] As a control, equal amounts of TRα and RARα proteins were also mixed and incubated with labelled TRE.
as §1, with “When antibody was used, 1 μl of the antiserum was incubated with the specific translation products at room temperature for 45 minutes before performing the experiments described above.” left out

[5] = biological target: T2, RARβ (UniProt P10826-2 P10826-2:1-448); assay: EMSA; no detectable complex under conditions used
T2 sequence: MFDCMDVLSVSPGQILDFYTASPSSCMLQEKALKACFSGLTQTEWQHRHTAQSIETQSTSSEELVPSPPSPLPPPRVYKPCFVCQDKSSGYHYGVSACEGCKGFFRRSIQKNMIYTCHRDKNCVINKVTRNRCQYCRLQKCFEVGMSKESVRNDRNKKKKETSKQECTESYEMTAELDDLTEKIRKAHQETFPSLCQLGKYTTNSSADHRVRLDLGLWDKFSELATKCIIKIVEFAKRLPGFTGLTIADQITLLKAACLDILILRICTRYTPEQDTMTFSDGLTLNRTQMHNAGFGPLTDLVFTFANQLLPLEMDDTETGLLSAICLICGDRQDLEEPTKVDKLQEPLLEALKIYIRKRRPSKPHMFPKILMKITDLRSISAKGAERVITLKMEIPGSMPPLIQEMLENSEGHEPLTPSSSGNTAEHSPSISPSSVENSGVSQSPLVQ
Procedure: as §2, §1

Chain of RARγ/RXRαm3 (P13631 whole entry, stated change not applied, chain 1 of 2): as the sequence (P13631 whole entry, stated change not applied, chain 1 of 2, the tested form may be a part) above
Chain of RARγ/RXRαm3 (P19793 29-462, stated change not applied, chain 2 of 2): as the sequence (P19793 29-462, stated change not applied, one chain of several) above

B1: palindromic TRE (dsDNA)
DNA 1: GATCTCAGGTCATGACCTGAGATC
DNA 2: GATCTCAGGTCATGACCTGAGATC
- binding result [1]: binds
- binding result [2]: no binding
- binding result [3]: binds
- binding result [4]: binds
- binding result [5]: no binding
